Laboratory results from patent US20240002844.

Target: T1, recombinant SHN3 (rSHN3, 50-930 aa) (UniProt A2A884)
T1 sequence: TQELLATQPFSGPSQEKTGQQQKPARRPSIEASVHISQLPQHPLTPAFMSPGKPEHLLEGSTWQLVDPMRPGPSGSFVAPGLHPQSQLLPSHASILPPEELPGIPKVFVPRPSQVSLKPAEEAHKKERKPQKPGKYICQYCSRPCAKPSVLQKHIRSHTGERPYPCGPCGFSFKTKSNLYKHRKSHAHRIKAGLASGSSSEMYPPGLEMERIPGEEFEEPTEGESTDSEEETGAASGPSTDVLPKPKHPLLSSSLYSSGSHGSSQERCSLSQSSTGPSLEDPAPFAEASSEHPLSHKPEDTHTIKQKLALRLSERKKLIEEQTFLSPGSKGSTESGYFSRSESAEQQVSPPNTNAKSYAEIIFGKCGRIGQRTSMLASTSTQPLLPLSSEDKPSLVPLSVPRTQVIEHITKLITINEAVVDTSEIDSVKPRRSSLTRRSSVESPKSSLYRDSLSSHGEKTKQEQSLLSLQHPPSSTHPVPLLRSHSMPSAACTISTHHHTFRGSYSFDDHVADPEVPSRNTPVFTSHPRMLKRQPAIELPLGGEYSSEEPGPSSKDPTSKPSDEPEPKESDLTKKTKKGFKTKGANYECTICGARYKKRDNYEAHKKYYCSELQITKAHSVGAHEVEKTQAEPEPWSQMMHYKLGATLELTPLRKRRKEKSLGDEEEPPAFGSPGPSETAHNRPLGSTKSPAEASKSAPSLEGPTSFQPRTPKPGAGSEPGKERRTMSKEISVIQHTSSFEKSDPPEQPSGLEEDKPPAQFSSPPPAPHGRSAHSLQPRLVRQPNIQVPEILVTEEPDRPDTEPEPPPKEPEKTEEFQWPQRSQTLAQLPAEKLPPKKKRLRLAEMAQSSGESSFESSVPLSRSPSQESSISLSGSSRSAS

recombinant ERK2 (rERK2), sequence (P28482 2-360): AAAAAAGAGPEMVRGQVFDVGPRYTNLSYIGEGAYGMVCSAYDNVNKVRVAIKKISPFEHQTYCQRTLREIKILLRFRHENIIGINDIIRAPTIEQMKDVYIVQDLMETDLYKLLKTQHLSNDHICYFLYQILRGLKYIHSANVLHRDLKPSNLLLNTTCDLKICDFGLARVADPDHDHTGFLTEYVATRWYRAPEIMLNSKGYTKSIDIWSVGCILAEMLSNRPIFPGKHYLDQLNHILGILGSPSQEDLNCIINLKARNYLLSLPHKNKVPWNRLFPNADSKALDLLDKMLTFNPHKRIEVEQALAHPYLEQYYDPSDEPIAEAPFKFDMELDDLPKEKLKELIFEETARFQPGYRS

Question: Which “in vitro kinase assay: rERK2-induced phosphorylation of rSHN3 (FIG. 9C)” value does the source give for recombinant ERK2 (rERK2) here?
Answer: recombinant SHN3 (rSHN3) was phosphorylated by recombinant ERK2 (rERK2)

Question: What about the “in vitro kinase assay: rERK2-induced phosphorylation of the ERK substrate ELK1 (FIG. 9C)” value of the same substance?
Answer: rSHN3 inhibited rERK2-induced phosphorylation of the ERK substrate ELK1

Question: What about the “phospho-spectrometry analysis of rERK and rSHN3 (FIG. 9D)” value of the same substance?
Answer: rERK phosphorylates rSHN3 at two serines (810 and 811 aa), one threonine (851 aa), and two serines (911 and 913 aa)
